Test results: patent US20240294644A1 (BLUEFIN BIOMEDICINE, published 2024)

T1: cynomolgus monkey VTCN1 protein (cynomolgus monkey, UniProt A0A2K5U6P5 25-259)
T1 construct: The construct and its tag are not described; also called cyno VTCN1
T1 sequence: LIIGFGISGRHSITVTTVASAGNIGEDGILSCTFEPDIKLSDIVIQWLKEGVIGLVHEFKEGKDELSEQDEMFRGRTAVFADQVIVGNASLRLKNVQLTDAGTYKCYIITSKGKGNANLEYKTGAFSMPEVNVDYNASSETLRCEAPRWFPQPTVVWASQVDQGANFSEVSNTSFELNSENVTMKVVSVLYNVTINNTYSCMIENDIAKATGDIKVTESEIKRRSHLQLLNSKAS

T2: recombinant human VTCN1-his protein (human, UniProt Q7Z7D3 25-259, limits assumed)
T2 construct: also called human VTCN1 protein; recombinant VTCN1
T2 sequence: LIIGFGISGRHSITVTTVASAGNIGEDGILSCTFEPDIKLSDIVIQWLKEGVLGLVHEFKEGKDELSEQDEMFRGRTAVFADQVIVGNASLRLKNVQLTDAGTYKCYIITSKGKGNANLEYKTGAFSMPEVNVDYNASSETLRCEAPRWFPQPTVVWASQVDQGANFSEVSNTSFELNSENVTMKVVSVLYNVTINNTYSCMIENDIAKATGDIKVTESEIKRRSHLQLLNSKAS

T3: human VTCN1 expressed on cells (293-VTCN1 cells; SKBR3, MX-1 and ZR-75-1 cells that express it naturally) (human, UniProt Q7Z7D3 25-282)
T3 construct: The cDNA was bought from Origene
T3 sequence: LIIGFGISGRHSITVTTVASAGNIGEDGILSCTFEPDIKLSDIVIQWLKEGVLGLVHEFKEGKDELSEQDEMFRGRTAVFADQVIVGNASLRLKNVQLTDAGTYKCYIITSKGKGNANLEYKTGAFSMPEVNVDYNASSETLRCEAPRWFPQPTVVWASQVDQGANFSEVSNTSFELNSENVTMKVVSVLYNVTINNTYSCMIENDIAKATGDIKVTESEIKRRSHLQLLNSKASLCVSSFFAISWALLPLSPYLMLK


How the values were obtained:
[1] = target: T1, cynomolgus monkey VTCN1 protein; assay: BLI (OCTET Red), antibody on Protein A biosensor, cyno VTCN1
[2] = target: T2, recombinant human VTCN1-his protein; assay: BLI (OCTET Red), antibody on Protein A biosensor, recombinant VTCN1-his in solution
[3] = target: T3, human VTCN1 expressed on cells …; assay: flow cytometry on live 293-VTCN1 and MX-1 cells, 0.05-10 ug/ml

Row | Kd [1] [nM] | Kd [2] [nM] | binding result [3] | Binder
1 | 2 | 6 |  | 3D11 (antibody, V domains shown, Recombinant mouse antibody made in CHO cells) VH: QVQLQQPGAELVKPGASVKLSCKASGYSFTSYWMNWVKQRPGRGLEWIGRIHPSDSETHYNQNFKSKATLTVDKSSSTAYIQLNSLTSEDSAVYYCARPYYFYGSSPYAMDYWGQGASVTVSS VL: DVVMTQTPLSLPVSLGDQASISCRSSQSIVHSNGNTYLEWYLQKPGQSPKLLIYKVSNRFSGVPDRFSGSGSGTDFTFKISRVEAEDLGVYYCFQGSHVPYTFGGGTKLEIK
2 |  |  | binds | 9H7 (antibody, V domains shown, Recombinant mouse antibody made in CHO cells) VH: QVQLQESGPELVKPGASVKLSCKASGYSFTDYTMHWVKQSPGQGLEWIGWIYPGSGNTMYNDKFKGEATMTADKSSSTTYMQLSSLTSEDSAVYFCARGGDSIITVFPFTYWGQGTLVTVSA VL: not shown
3 |  |  | binds | 7C9 (antibody, V domains shown, Recombinant mouse antibody made in CHO cells) VH: QIQLQESGPGLVQPSQSLSITCTVSGFSLTSYGVQWVRQSPGKGLEWLGVIWSSGSTDYNAAFISRLSISKDNSKSQVFFKMNSLQADDTAIYYCARDITTIVEGFAYWGQGTLVTVSA VL: NIVMTQSPKSMSMSVGERVTLRCKASENVNTYVSWYQQKPEQSPKLLIYGASNRYTGVPDRFTGSGSATDFTLTISSVQAEDLADYHCGQSYSYPFTFGSGTKLEIK
4 | 12 | 5 |  | 7F10 (antibody, V domains shown, Recombinant mouse antibody made in CHO cells) VH: QVQLQQSGPGLVQPSQSLSITCTVSGFSLTSYGIHWVRQSPGKGLEWLGVIWSSGSTDYNAAFISRLSISKDNSKSQVFFKMNSLQSDDTAIHYCARDITTIAEGFAYWGQGTLVTVSA VL: NIVMTQSPKSMSMSVGERVTLSCKASENVGTYVSWYQQKPEQSPKLLIYGASNRYTGVPDRFTGSGSATDFTLTISSVQAEDLADYHCGQSYSYPFTFGSGTKLEIK
5 |  |  | binds | 1F8 (antibody, V domains shown, Recombinant mouse antibody made in CHO cells; also called 1F8C6) VH: QMQLKESGPGLVQPSQSLSITCTVSGFSLTSYGVQWVRQFSGKGLEWLGVIWSSGSTDYNAAFISRLSISKDNSKSQVFFKMNSLQPDDTAMYYCARDITTIVEGFAYWGQGTLVTVSA VL: IIVMTQSPKSMSMSVGERVTLSCKASENVGTYVSWYQQKPEQSPKLLIYGASNRYTGVPDRFTGSGSATDFTLTISSVQAEDLADYHCGQSYSYPFTFGSGTKLEIKR
6 | 14 | 12 |  | 3G10 (antibody, V domains shown, Recombinant mouse antibody made in CHO cells) VH: QIQLKESGPGLVQPSQSLSITCTVSGFSLTSYGVHWVRQSPGKGLEWLGVIWSGGYTDYNSAFISRLSISKDNSKSQVFFKMNSLQADDTAIYYCARDITTIVEGFAYWGQGTLVTVSA VL: IIVMTQSPKSMSMSVGERITLNCKASENVGTYVSWYQQKPEQSPKLLIYGASNRYTGVPDHFTGSGSATDFTLTISSVQAEDLADYHCGQTYSYPFTFGSGTKLEIK
7 |  |  | binds | 4B9 (antibody, V domains shown, Recombinant mouse antibody made in CHO cells) VH: EVQLQESGPGLVQPSQSLSITCTVSGFSLTSYGVHWVRQSPGKGLEWLGVIWSSGSTDYNAAFISRLSISKDNSKSQVFFKIHSLQADDTAIYYCARDITTIVEGFAYWAQGTLVTVSA VL: NIVMTQSPKSMSMSVGERVTLICKASENVGTYVSWYQQKPEQSPKLLIYGASNRYTGVPDRFTGSGSATDFTLTISSVQAEDLADYHCGQTYSYPFTFGSGTKLEIK
8 |  |  | binds | 8G3 (antibody, V domains shown, Recombinant mouse antibody made in CHO cells) VH: QIQLQESGPGLVQPSQSLSITCTVSGFSLTSYGVHWVRQSPGKGLEWLGVIWSSGSTDYNAAFISRLSISKDNSRSQVFFKMNSLQPDDTAIYYCARDITTIVEGFAYWAQGTLVTVSA VL: NVVMTQSPKSMSMSVGERVTLICKASENVGTYVSWYQQKPEQSPKLLIYGASNRYTGVPDRFTGSGSATDFTLTISSVQAEDLADYHCGQTYSYPFAFGSGTKLEIK
9 | 19 | 8 |  | 6E2 (antibody, V domains shown, Recombinant mouse antibody made in CHO cells) VH: QIQLQESGPGLVQPSQSLSITCTVSGFSLTSYGVQWVRQSPGKGLEWLGVIWSGGSTDYNAAFISRLSISKDNSKSQVFFKMNSLQADDTAIYYCARDISTIVEGFAHWGQGTLVTVSS VL: NIVMTQSPKSMSMSVGERVTLSCKASEKVGTYVSWYQQKPEQSPKLLIYGASNRYTGVPDRFTGSGSATDFTLTISSVQAEDLADYHCGQSYRYPFTFGSGTKLEIK
10 |  |  | binds | 1A2 (antibody, V domains shown, Recombinant mouse antibody made in CHO cells) VH: QVQLQQSGPGLVQPSQSLSITCTVSGFSLTSYGVHWVRQSPGKGLEWLGVIWSGGSTDYNAAFISRLSISKDNSKSQVFFKMNSLQADDTAIYYCARDITTIVEGFAYWGQGTLVTVSA VL: NIVMTQSPKSMSMSVGERVTLSCKASENVGTYVSWYQQKPEQSPKLLIYGASNRYTGVPDRFTGSGSATDFTLTISSVQAEDVTDYHCGQTYSYPFTFGSGTKLEIK
11 |  |  | binds | 1C3 (antibody, V domains shown, Recombinant mouse antibody made in CHO cells) VH: QIQLQQSGPGLVQPSQSLSITCTVSGFSLTSYGVQWVRQSPGKGLEWLGVIWSSGNTDYNAAFISRLTITKDNSKSQIFFKMNSLQADDTAIYYCARDITTIVEGFAYWGQGTLVTVSA VL: NIVMTQSPKSMSMSVGERVTLSCKASENVGTYVSWYQQKPEQSPKLLIYGASNRYTGVPDRFTGSGSATDFTLTISSVQAEDLADYHCGQTYSYPFTFGSGTKLEIK
12 | 16 | 14 |  | 4C6 (antibody, V domains shown, Recombinant mouse antibody made in CHO cells) VH: QMQLQESGPGLVQPSQSLSITCTVSGFSLTSYGIHWVRQSPGKGLEWLGVIWSSGSTDYNAAFISRLSISKDNSKSQVFFKMNSLQSDDTAIHYCARDITTIAEGFAYWGQGTLVTVSS VL: NIVMTQSPKSMSMSVGERVTLSCKASENVGTYVSWYQQKPEQSPKLLIYGASNRYTGVPDRFTGSGSATDFTLTISSVQAEDLADYHCGQSYSYPFTFGSGTKLEIK
13 |  |  | binds | 7D9 (antibody, V domains shown, Recombinant mouse antibody made in CHO cells) VH: QIQLKESGPGLVQPSQSLSITCTVSGFSLTSYGVQWVRQSPGKGLEWLGVIWSGGSTDYNAAFISRLSISKDNSKSQVFFKMNSLQADDTAIYYCARDITTIVEGFAYWAQGTLVTVSA VL: NIVMTQSPKSMSMSVGERVTLSCKASENVGTYVSWYQQKPEQSPKLLIYGASNRYTGVPDRFTGSGSATDFTLTISSVQAEDLADYHCGQTYSYPFTFGSGTKLEIK
14 |  |  | binds | 7G9 (antibody, V domains shown, Recombinant mouse antibody made in CHO cells) VH: QVQMQESGPGLVQPSQSLSITCTVSGFSLTSYGVQWVRQSPGKGLQWLGVIWSSGSTDYNAAVISRLSISKDTSKSQVFFKMNSLQPDDTAIYYCARDITTIVEGFAYWGQGTLVTVSS VL: IIVMTQSPKSMSMSVGERVTLSCKASENVGTYVSWYQQKPEQSPKLLIYGASNRYTGVPDRFTGSGSATDFTLTISSVQAEDLADYHCGQSYSYPFTFGSGTKLEIK
15 |  |  | binds | 9H12 (antibody, V domains shown, Recombinant mouse antibody made in CHO cells) VH: QIQLQESGPGLVQPSQSLSITCTVSGFSLTSYGVQWVRQSPGKGLEWLGVIWSGGSTDYNAAFISRLSISKDNSKSQVFFKMNSLQADDTAIYYCARDITTIVEGFAHWGQGTLVTVSA VL: NIVMTQSPKSMSMSVGERVTLSCKASEKVGTYVSWYQQKPEQSPKLLIYGASNRYTGVPDRFTGSGSATDFTLTISSVQAEDLADYHCGQSYSYPFTFGSGTKLEIK
16 |  |  | binds | 3C6 (antibody, V domains shown, Recombinant mouse antibody made in CHO cells) VH: QIQLQESGPELKKPGETVKISCKASGYTFTTTGMQWVQKMPGKGFKWIGWINTHSGEPKYADDFKGRFAFSLETSASTAHLQISNLKNEDTATYFCARTSYWYLDVWGAGTTVTVSS VL: DIVMTQSQKFMSTSVGDRVSVTCKASQIVGTNIAWYQQKPGQSPKALIYSASYRNSGVPDRFTGSGSGTDFTLTITNVQSEDLAEYFCQQYNSYPLTFGAGTKLEIK
17 |  |  | binds | 2C2 (antibody, V domains shown, Recombinant mouse antibody made in CHO cells) VH: QIQLQQSGPELKKPGETVKISCKASGYTFTTAGMQWVQKMPGKGFKWLGWINTHSGEPKYADDFKGRFAFSLETSASTAYLQINNLKNEDTATYHCARTSYWYLDIWGAGTTVTVSS VL: DIVMTQSQKFMSTSVGDRVSVTCKASQNVGTNVAWYQQKPGQSPKALIYSASYRCSGVPDRFTGSGSGTDFTLTISNVQSEDLAEYFCQQYNSYPLTFGAGTKLEIK
18 |  |  | binds | 7E12 (antibody, V domains shown, Recombinant mouse antibody made in CHO cells) VH: QVQMKESGPELKKPGETVKISCKASGYTFTTTGMQWVQKMPGKGFKWIGWINTHSGEPKYADDFKGRFAFSLETSASTAHLQISNLKNEDTATYFCARTSYWYLDVWGAGTTVTVSS VL: DIVMTQSQKFMSTSVGDRVSVTCKASQIVGTNIAWYQQKPGQSPKALIYSASYRNSGVPDRFTGSGSGTDFTLTITNVQSEDLAEYFCQQYNSYPLTFGAGTKLEIK
